Values of other authors, collected in paper PMC2659627 (Bioconjugate chemistry, 2008).
DPr = 2,3-diaminopropanoyl

Key:
PC-3 cells = settings: after 90 min incubation with PC-3 cells
GRP-receptors = settings: read-out: IC50 (binding affinity to GRP-receptors); human PC-3 cell line

Substance	Uptake in normal pancreas [ID/g]	Internalization (PC-3 cells) [%]	IC50 (GRP-receptors) [pM]	Uptake compared to DTPA-BBN[1-14] (CA20948 pancreas tumor)	Uptake compared to DTPA-BBN[1-14] (PC-3 prostate tumors) [times]
(DPr)-Ser-Ser-Ser-Gln-Trp-AlaVal-Gly-His-Leu-Met-(NH2) (DPr-SSSQWAVGHLM-NH2; also: Tc/Re tricarbonyl complex on DPr chelator)	16 ± 1.3	80	~860	–	–
DTPA-ACMpip-Tha^6-BAla^11-Tha^13-Nle^14-BBN[6-14]	–	–	–	two to three times higher	1.3
